The record followed here is IntAct's records for PubMed 35512704.

To fix the notation:
B1: Mothers against decapentaplegic homolog 4 (Homo sapiens), Q13485 (parent)
chain: MDNMSITNTPTSNDACLSIVHSLMCHRQGGESETFAKRAIESLVKKLKEKKDELDSLITAITTNGAHPSKCVTIQRTLDGRLQVAGRKGFPHVIYARLWRWPDLHKNELKHVKYCQYAFDLKCDSVCVNPYHYERVVSPGIDLSGLTLQSNAPSSMMVKDEYVHDFEGQPSLSTEGHSIQTIQHPPSNRASTETYSTPALLAPSESNATSTANFPNIPVASTSQPASILGGSHSEGLLQIASGPQPGQQQNGFTGQPATYHHNSTTTWTGSRTAPYTPNLPHHQNGHLQHHPPMPPHPGHYWPVHNELAFQPPISNHPAPEYWCSIAYFEMDVQVGETFKVPSSCPIVTVDGYVDPSGGDRFCLGQLSNVHRTEAIERARLHIGKGVQLECKGEGDVWVRCLSDHAVFVQSYYLDREAGRAPGDAVHKIYPSAYIKVFDLRQCHRQMQQQAATAQAAAAAQAAAVAGNIPGPGSVGGIAPAISLSAAAGIGVDDLRRLCILRMSFVKGWGPDYPRQSIKETPCWIEIHLHRALQLLDEVLHTMPIADPQPLD
partner: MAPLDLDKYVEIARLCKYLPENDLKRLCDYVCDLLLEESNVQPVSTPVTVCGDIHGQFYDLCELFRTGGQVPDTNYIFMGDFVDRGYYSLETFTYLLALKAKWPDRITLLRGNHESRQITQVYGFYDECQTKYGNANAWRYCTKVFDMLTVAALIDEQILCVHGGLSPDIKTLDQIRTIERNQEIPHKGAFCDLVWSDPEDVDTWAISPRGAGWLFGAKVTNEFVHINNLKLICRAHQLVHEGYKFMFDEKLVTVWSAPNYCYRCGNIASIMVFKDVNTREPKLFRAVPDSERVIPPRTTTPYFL
B2: Mothers against decapentaplegic homolog 4 (Homo sapiens), Q13485 (parent)
chain: B1 chain
partner: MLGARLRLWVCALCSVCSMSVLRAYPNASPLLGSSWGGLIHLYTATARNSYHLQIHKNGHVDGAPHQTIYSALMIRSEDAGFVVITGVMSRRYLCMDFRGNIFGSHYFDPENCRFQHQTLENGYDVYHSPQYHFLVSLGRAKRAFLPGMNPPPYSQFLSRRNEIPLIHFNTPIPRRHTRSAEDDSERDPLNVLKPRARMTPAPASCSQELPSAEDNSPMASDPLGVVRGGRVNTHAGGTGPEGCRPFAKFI
B3: Mothers against decapentaplegic homolog 4 (Homo sapiens), Q13485 (parent)
chain: B1 chain
partner: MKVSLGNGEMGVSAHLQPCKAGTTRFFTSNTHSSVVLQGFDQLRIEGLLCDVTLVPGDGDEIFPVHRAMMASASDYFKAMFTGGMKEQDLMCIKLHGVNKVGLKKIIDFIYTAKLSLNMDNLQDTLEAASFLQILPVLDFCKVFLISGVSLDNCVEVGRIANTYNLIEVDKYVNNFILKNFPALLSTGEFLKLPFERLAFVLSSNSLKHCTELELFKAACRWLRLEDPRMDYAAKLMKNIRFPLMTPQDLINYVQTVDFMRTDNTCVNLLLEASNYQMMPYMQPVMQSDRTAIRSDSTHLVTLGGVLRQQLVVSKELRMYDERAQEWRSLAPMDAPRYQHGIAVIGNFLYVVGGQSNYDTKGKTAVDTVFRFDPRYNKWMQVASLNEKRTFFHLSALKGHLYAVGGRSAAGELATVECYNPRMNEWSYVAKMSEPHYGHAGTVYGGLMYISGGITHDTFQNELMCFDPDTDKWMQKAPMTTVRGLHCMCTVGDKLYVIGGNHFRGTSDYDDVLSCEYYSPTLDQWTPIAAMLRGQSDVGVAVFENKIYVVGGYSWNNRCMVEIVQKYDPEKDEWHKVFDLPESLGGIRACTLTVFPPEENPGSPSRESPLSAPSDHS
B4: Mothers against decapentaplegic homolog 4 (Homo sapiens), Q13485 (parent)
chain: B1 chain
partner: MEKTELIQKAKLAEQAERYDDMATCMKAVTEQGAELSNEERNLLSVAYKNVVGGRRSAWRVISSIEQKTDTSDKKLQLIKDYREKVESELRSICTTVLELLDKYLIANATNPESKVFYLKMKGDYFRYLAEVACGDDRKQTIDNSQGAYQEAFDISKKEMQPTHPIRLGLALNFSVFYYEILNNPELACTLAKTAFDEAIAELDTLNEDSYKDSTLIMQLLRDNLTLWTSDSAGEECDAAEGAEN

In the first experiment the parent is B1. The settings on record: with ppp6_human PPP6C.
As to G386D, the “effect of a mutation on the interaction” value was “with no effect”.

In the next experiment the parent is B1. The following applies: with ppp6_human PPP6C. The source holds these as a separate data set.
Take G386D: the “effect of a mutation on the interaction” value is recorded as “increasing interaction strength”.

Another experiment covers variants of B1. The settings on record: with ppp6_human PPP6C. This is another data set of the same source.
As to R361C, the “effect of a mutation on the interaction” value was “with no effect”.

The next experiment covers variants of B2. The following applies: with fgf23_human FGF23, Q9GZV9.
Take G386D: the “effect of a mutation on the interaction” value is “with no effect”.

In a further experiment the parent is B2. The following applies: with fgf23_human FGF23, Q9GZV9. The source holds these as a separate data set.
In the case of G386D, the “effect of a mutation on the interaction” value is listed as “increasing interaction strength”.

In the next experiment the parent is B3. The following applies: with klhl9_human KLHL9, Q9P2J3.
Take G386D: the “effect of a mutation on the interaction” value is “with no effect”.

The variants in the next experiment derive from B3. The following applies: with klhl9_human KLHL9, Q9P2J3. This is another data set of the same source.
As for G386D, the “effect of a mutation on the interaction” value is reported as “increasing interaction strength”.

The variants in the next experiment derive from B4. The settings on record: with 1433t_human YWHAQ.
In the case of D351H, the “effect of a mutation on the interaction” value is on record as “with no effect”.

A further experiment covers variants of B4. The settings on record: with 1433t_human YWHAQ. This is another data set of the same source.
Turning to G386D, the “effect of a mutation on the interaction” value is listed as “with no effect”.

The variants in another experiment derive from B4. The settings on record: with 1433t_human YWHAQ. This is another data set of the same source.
R361H: the “effect of a mutation on the interaction” value is listed as “with no effect”.

The next experiment covers variants of B4. The settings on record: with 1433t_human YWHAQ. This is another data set of the same source.
Regarding R361C, the “effect of a mutation on the interaction” value is “with no effect”.
